The text below walks through data of PMC3464233, “Structural Basis of Differential Neutralization of DENV-1 Genotypes by an Antibody that Recognizes a Cryptic Epitope” (PLoS Pathogens, 2012).

Changes are numbered by the printed parent chain. Bounds are passed on as bounds.

For assay [1], the target named is DENV-1 strain TVP-2130 E protein domain III (Dengue virus 1 (strain TVP-2130, genotype 1)).
Assay [2] has as its target DENV-1 strain 16007 E protein domain III (residues 293-399) (Dengue virus 1 (strain 16007, genotype 2)).
Assay [3] has the same target. This is another data set of the same source.
In assay [4] the target is DENV1-E111 monoclonal antibody. Description: SPR; Biacore T100; about 500 RU of E111 MAb or scFv amine-coupled to a Series S CM5 chip; two-fold dilution series of DIII variants injected 180 s, dissociation 1,000 s; 25°C; double referencing against WNV E16 MAb/scFv flow cell; 1:1 Langmuir fit. On the technique in general: SPR reads the build-up and loss of mass on a sensor chip optically.

Assay [5] has as its target DENV1-E111 monoclonal antibody. Description: not stated; half-life of binding of 16007 DIII K343I with E111; unpublished results.
Assay [6] addresses DENV-1 West Pac-74 DIII V345A (Dengue virus 1 (strain Western Pacific-74, genotype 4)).
Assay [7] deals with T1, DENV-1 strain Western Pacific-74 E protein domain III (residues 293-399) (Dengue virus 1, strain Nauru/Western …, strain).
T1 construct: Dengue virus 1 strain Western Pacific-74 (genotype 4), envelope (E) protein domain III, residues 293-399; differs from 16007 DIII at 339 (S) and 345 (V); also called West Pac-74 DIII; source: soluble, bacterially expressed
T1 chain: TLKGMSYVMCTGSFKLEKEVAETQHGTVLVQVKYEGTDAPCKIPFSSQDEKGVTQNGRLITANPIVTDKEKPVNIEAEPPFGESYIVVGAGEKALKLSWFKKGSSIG
Description: SPR; Biacore T100; about 500 RU of E111 MAb or scFv amine-coupled to a Series S CM5 chip; two-fold dilution series of DIII variants injected 180 s, dissociation 1,000 s; 25°C; double referencing against WNV E16 MAb/scFv flow cell; 1:1 Langmuir fit. To be noted: both partners purified.

For assay [8], the target named is DENV-1 strain 3146 SL E protein domain III (Dengue virus 1 (strain 3146 SL, genotype 5)).
The target of assay [9] is T1, DENV-1 strain Western Pacific-74 E …. As to the kind of experiment: SPR; Biacore T100; about 500 RU of E111 MAb or scFv amine-coupled to a Series S CM5 chip; two-fold dilution series of DIII variants injected 180 s, dissociation 1,000 s; 25°C; double referencing against WNV E16 MAb/scFv flow cell; 1:1 Langmuir fit. The note with it: both partners purified.
Assay [10] shares this target. Description: cell-based or functional assay.
Assay [11] concerns the target DENV-1 strain TVP-5175 E protein domain III (Dengue virus 1 (strain TVP-5175, genotype 3)).
The target in assay [12] is DENV-1 strain 3146 SL E protein domain III (Dengue virus 1 (strain 3146 SL, genotype 5)). The source holds these as a separate data set.
Assay [13] deals with E111 single-chain variable fragment (VL at the N-terminus). Description: SEC; E111 scFv after nickel affinity; two species resolved. For orientation: Size exclusion chromatography separates by hydrodynamic size, large species first.
For assay [14], the target named is T2, DENV-1 strain 16007 E protein domain III (residues 293-399) (Dengue virus 1, strain 16007 (genotype …, strain)).
T2 construct: Dengue virus 1 strain 16007 (genotype 2), envelope (E) protein domain III, residues 293-399; untagged; also called 16007 DIII; DIII of 16007; source: BL21 bacterial cells (pET21a, autoinduction); inclusion bodies solubilized and oxidatively re-folded
T2 chain: T1 chain with S47T, V53A
As to the kind of experiment: SPR; Biacore T100; about 500 RU of E111 MAb or scFv amine-coupled to a Series S CM5 chip; two-fold dilution series of DIII variants injected 180 s, dissociation 1,000 s; 25°C; double referencing against WNV E16 MAb/scFv flow cell; 1:1 Langmuir fit. The note with it: both partners purified.

Regarding DENV1-E111 monoclonal antibody, in assay [1], the PRNT50, plaque reduction neutralisation of DENV-1 TVP-2130 (genotype 1) on Vero cells is greater than 25000 ng/mL. In addition, the PRNT50, plaque reduction neutralisation of DENV-1 16007 (genotype 2) on Vero cells in assay [2] came to 3.8 ng/mL. The molecule also came in with an EC50 of neutralisation of 16007 RVP after incubation with E111 at 37°C (1 to 22 h) or 40°C (to 4.5 h); fold increase in potency at 40°C for 4.5 h in [3] of 3.5 fold.

With “DENV-1 16007 DIII A345V (domain or fragment)”, in [4], the Kd – broadly, a measure of binding affinity in units of concentration – amounted to 1140 nM; the koff – broadly, the rate constant with which the complex falls apart – is 0.131 s⁻¹; the kon (as a rule, the rate constant with which the complex forms) was 114000 M⁻¹ s⁻¹; the t1/2 came to 5.3 s.

In [4], “DENV-1 16007 DIII A369T (domain or fragment)” displayed a dissociation constant Kd of 25.3 nM, a koff of 0.00383 s⁻¹, a kon of 151000 M⁻¹ s⁻¹ and a t1/2 of 182 s.

In assay [4], “DENV-1 16007 DIII D341N (domain or fragment)” displayed a Kd of 18.9 nM, a koff of 0.00402 s⁻¹, a kon of 213000 M⁻¹ s⁻¹ and a t1/2 of 173 s.

For “DENV-1 16007 DIII K310E/T329E/K361T (domain or fragment)”, in assay [4], the equilibrium dissociation constant (Kd) was determined as 39.8 nM, the off-rate constant (koff) came out at 0.00457 s⁻¹, the kon amounted to 121000 M⁻¹ s⁻¹ and the t1/2 was found to be 155 s.

In turn, “DENV-1 16007 DIII K343I (domain or fragment)” yielded a t1/2 in assay [5] of 45 min.

In assay [4], “DENV-1 16007 DIII L351V (domain or fragment)” had a Kd of 107 nM, a koff of 0.0237 s⁻¹, a kon of 211000 M⁻¹ s⁻¹ and a t1/2 of 32.9 s.

In assay [4], “DENV-1 16007 DIII T339S (domain or fragment)” had a Kd of 16.6 nM, a koff of 0.00313 s⁻¹, a kon of 191000 M⁻¹ s⁻¹ and a t1/2 of 222 s.

Consider “DENV-1 16007 DIII V380I (domain or fragment)”, for which, in assay [4], the Kd worked out at 19 nM, the off-rate (koff) stood at 0.00236 s⁻¹, the on-rate constant (kon) was 124000 M⁻¹ s⁻¹ and the t1/2 worked out at 296 s.

For the molecule “DENV-1 strain 3146 SL E protein domain III (domain or fragment)”, in assay [4], the Kd was 523 nM, the koff was 0.142 s⁻¹, the on-rate constant (kon) is 267000 M⁻¹ s⁻¹ and the t1/2 stood at 5.5 s.

In assay [4], “DENV-1 strain 16007 E protein domain III (residues 293-399) (domain or fragment)” returned an equilibrium dissociation constant (Kd) of 18 nM, a koff of 0.00356 s⁻¹, a kon of 198000 M⁻¹ s⁻¹ and a t1/2 of 194 s.

In the case of “DENV-1 strain TVP-5175 E protein domain III (domain or fragment)”, in assay [4], the Kd was 1980 nM, the koff came to 0.312 s⁻¹, the association rate constant (kon) was 162000 M⁻¹ s⁻¹ and the t1/2 is 2.2 s.

B1: DENV1-E111 monoclonal antibody (antibody, V domains shown)
VH: QVQLLQPGAELVKPGASMKLSCKASGYTFTNWWMHWVRLRPGRGLEWIGRIDPNSDVNKYNEKFENRASLTVDKHSSTAYMQLSSLTSEDSAIYYCARWFFPWYFDVWGTGTTVTVSS
VL: NIVLTQSPASLAVSLGQRATISCRASESVDHYGNSFIYWYQQKPGQPPKLLIYLASNLESGVPARFSGSGSETDFTLTIDSVETDDAATYYCQQNNEDPYTFGGGTKLEIK
notes: also called E111 MAb; E111 IgG; source: E111 hybridoma
For B1, the neutralisation of V345A West Pac-74 RVP against wild-type West Pac-74 RVP, Raji-DC-SIGNR cells, fold enhancement in assay [6] was 3.6 fold. In assay [7], this molecule displayed a dissociation constant Kd of 415 ± 24 nM. For the same molecule, the EC50, plaque reduction neutralisation of DENV-1 3146 SL (genotype 5) in [8] was 22 ng/mL. In [9], this molecule showed a Kd of 416 nM, a dissociation rate constant (koff) of 0.106 s⁻¹, an on-rate constant (kon) of 256000 M⁻¹ s⁻¹ and a t1/2 of 6.5 s. The “EC50 of neutralisation of West Pac-74 RVP after incubation with E111 at 37°C (1 to 22 h) or 40°C (to 4.5 h); fold reduction at 40°C for 4.5 h” value in [10] is 20 fold. In assay [11], this molecule displayed a PRNT50, plaque reduction neutralisation of DENV-1 TVP-5175 (genotype 3) on Vero cells greater than 25000 ng/mL. For the same molecule, the PRNT50, plaque reduction neutralisation of DENV-1 3146 SL (genotype 5) on Vero cells in [12] was found to be 21 ng/mL.

B2: E111 single-chain variable fragment (VL at the N-terminus) (scFv, V domains shown)
VH: B1 VH
VL: B1 VL
notes: E111 VL; as the VL of the light chain of m1; (GGGGS)3 linker; E111 VH; as the VH of the heavy chain of m1; The monomeric species was used for the structure; a second construct with VH first was also made but not used; also called E111 scFv
As to B2, the stoichiometry N (in general, the number of molecules, sites or subunits per partner or assembly) in [13] came to 2. Also, in [9], binding was characterised by a dissociation constant (Kd) of 1830 nM, the koff came out at 0.275 s⁻¹, the kon worked out at 151000 M⁻¹ s⁻¹ and the t1/2 came out at 2.53 s. Besides, in assay [14], the equilibrium dissociation constant (Kd) stood at 24.6 nM, the koff came to 0.00695 s⁻¹, the association rate constant (kon) was determined as 288000 M⁻¹ s⁻¹ and the t1/2 was determined as 100 s.
